These results are taken from publication PMC10276142, “Protocol to measure protein-RNA binding using double filter-binding assays followed by phosphorimaging or high-throughput sequencing”.

This series deals with AGO2 (miR-449a RISC) (mouse, UniProt Q8CJG0 1-860). As to the kind of experiment: filter binding; titration regime, 0.5 nM target RNA (2.5 nM stock, 1 in 5), 37 C 1 h; stoichiometric point [RISC]/[target] 1.3 (77% active); no KD reported; Double filter binding (nitrocellulose/nylon), 5 uL reactions, 37 C for 1 h; compositions of Storage, Dilution and Reaction Mix buffers not given in material. Conditions: protein: recombinant; tags: FLAG; label: 5' 32P on target; guide:target seed pairing, guide nt 2-8 plus A opposite nt 1; rest of target single-stranded.
AGO2 (miR-449a RISC), sequence (Q8CJG0 whole entry): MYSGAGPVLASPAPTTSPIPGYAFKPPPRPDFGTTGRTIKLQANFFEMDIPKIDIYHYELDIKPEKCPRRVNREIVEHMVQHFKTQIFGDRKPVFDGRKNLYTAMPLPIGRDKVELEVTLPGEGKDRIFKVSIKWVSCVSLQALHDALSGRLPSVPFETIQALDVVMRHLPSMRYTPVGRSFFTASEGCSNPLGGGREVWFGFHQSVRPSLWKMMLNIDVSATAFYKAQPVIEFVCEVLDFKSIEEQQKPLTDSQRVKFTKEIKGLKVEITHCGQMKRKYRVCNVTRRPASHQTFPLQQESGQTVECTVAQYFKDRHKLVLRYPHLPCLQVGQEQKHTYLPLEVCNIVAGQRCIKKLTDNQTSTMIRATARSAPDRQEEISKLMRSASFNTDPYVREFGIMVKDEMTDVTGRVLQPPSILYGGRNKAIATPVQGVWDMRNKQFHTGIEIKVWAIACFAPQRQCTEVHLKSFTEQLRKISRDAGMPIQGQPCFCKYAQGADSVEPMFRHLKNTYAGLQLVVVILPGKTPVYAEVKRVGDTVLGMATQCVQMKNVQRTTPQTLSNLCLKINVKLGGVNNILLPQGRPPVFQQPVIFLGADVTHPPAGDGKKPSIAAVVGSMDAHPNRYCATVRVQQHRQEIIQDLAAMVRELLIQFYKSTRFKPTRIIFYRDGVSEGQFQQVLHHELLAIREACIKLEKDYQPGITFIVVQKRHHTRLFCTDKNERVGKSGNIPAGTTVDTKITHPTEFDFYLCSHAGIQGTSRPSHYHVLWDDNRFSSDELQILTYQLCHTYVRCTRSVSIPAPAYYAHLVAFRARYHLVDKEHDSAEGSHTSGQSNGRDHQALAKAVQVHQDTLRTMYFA

B1: miR-449a guide / 8mer-site target RNA (mixed)
RNA 1: UGGCAGUGUAUUGUUAGCUGGU
RNA 2: AUGAAAUCGAUAUCUAUCACUGCCAACU
modifications: guide 5'-phosphate; target 5' 32P-phosphate
For the molecule B1, the binding result is “binds”.
